The results in this text go back to patent US20050191294A1 (University of Texas, published 2005).

The target in experiment [1] is T1, recombinant GRP78 (Stressgen).
T1 construct: Bought protein; also called Glucose-regulated protein-78; immobilized GRP78
As to the kind of experiment: phage binding to GRP78 immobilized on microtiter wells, 10^9 TU, bound TU counted. As to the method:
In vitro phage binding assays. GRP78, HSP70, HSP90 (all from Stressgen, Victoria, Canada) and bovine serum albumin (BSA) were immobilized on microtiter wells of 96-well plates overnight at 4° C. Wells were washed twice with phosphate-buffered saline (PBS), blocked with PBS containing 3% BSA for 1 hour at room temperature (RT), and incubated with 10⁹ transducing units (TU) of […] (SEQ ID NO:6)-phage, […] (SEQ ID NO:7)-phage, or insertless control phage (Fd-tet) in 50 μl of PBS containing 1.5% BSA. After 2 hours at RT, wells were washed with PBS, and bound phage were recovered by infection with host bacteria (log-phase Escherichia coli K91 kan; OD₆₀₀≈2). Aliquots of the bacterial culture were plated onto Luria-Bertani broth (LB) agar plates supplemented with 40 μg/ml tetracycline and 100 μg/ml kanamycin. Plates were incubated overnight at 37° C., and phage TU were counted in triplicate plates. Increasing concentrations of synthetic peptides […] (SEQ ID NO:6), […] (SEQ ID NO:7)-, and an unrelated control peptide CARAC (SEQ ID NO:9) (Genemed Synthesis Inc., San Francisco, Calif.) were used to evaluate competitive inhibition of phage binding. All peptides were solubilized in a standard stock solution of 10% dimethylsulfoxide (DMSO) and diluted to working concentrations for the assays.
Peptide aptamers bind specifically to immobilized GRP78. […]

The target in experiment [2] is T2, GRP78 of human prostate cancer cells (DU145 cell surface; human prostate cancer bone metastasis sections) (human, UniProt P11021 19-654).
T2 construct: whole, on cells; Endogenous protein; used for the intact-cell (BRASIL) assay and for tissue section overlays; also called GRP78 expressed on the membrane of the prostate cancer cells
T2 sequence (P11021 19-654): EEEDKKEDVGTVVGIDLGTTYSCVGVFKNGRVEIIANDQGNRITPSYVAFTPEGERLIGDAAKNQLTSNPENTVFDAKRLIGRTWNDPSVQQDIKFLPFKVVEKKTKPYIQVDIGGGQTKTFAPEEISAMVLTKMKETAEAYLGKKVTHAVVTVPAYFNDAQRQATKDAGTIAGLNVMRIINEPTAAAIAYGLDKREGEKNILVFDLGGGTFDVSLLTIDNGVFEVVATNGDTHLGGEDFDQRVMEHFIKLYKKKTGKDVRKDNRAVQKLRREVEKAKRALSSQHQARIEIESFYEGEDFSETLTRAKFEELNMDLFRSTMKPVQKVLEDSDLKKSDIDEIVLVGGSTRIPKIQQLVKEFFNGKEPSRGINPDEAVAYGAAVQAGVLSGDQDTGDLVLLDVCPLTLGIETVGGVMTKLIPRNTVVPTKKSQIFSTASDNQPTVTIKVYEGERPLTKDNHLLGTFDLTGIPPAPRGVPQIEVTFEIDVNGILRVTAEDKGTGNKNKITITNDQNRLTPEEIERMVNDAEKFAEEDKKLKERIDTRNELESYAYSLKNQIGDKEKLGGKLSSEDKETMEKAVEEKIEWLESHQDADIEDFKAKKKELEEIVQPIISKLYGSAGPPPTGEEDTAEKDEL
As to the kind of experiment: BRASIL aqueous-organic phase separation, phage on intact DU145 cells. The protocol: Cell-binding assays. Biopanning and Rapid Analysis of Selective Interactive Ligands (BRASIL) method was used to evaluate phage binding to intact cells. In brief, cultured human prostate cancer-derived DU 145 cells were detached with ethylenediaminetetraacetate (EDTA) and resuspended in Dulbecco's modified Eagle's medium (DMEM) containing 1% BSA at 4×10⁶ cells per ml. The cell suspension (50 μl) was incubated with 10⁹ of […] (SEQ ID NO:6)—phage, […] (SEQ ID NO:7)—phage, or insertless Fd-tet phage (negative control) at 4° C. in constant slow rotation. After 2 hours, the phage/cell mixture (aqueous phase) was gently transferred to the top of a non-miscible organic phase (200 μl solution in a 400 μl Eppendorf tube) consisting of dibutyl phtalate:cyclohexane (9:1 [v:v]; d=1.03 g ml⁻¹) and centrifuiged at 10,000 g for 10 minutes at 4° C. The tube was then snap frozen in liquid nitrogen, the bottom of the tube was sliced off, and the cell-phage pellet was isolated. Cell membrane bound phage were recovered by infection with the host bacteria.
GRP78-binding phage clones bind specifically to prostate cancer cells. Having determined the binding specificity of aptamers to GRP78 in vitro, the binding of filamentous phage clones displaying […] […] (SEQ ID NO:7) (FIG. 5B) 580 to intact DU145 human prostate cancer cells by using an aqueous-organic phase separation was evaluated. […]

The target of experiment [3] is T3, IL-11Rα of human prostate cancer cells (LNCaP, MDA-PCa-2b) and human prostate cancer tissue sections (human, UniProt Q14626 23-422).
T3 construct: whole, on cells; Endogenous receptor; used both for cell assays and for tissue section overlays; also called IL-11 receptor alpha; interleukin-11 receptor alpha
T3 sequence (looked up): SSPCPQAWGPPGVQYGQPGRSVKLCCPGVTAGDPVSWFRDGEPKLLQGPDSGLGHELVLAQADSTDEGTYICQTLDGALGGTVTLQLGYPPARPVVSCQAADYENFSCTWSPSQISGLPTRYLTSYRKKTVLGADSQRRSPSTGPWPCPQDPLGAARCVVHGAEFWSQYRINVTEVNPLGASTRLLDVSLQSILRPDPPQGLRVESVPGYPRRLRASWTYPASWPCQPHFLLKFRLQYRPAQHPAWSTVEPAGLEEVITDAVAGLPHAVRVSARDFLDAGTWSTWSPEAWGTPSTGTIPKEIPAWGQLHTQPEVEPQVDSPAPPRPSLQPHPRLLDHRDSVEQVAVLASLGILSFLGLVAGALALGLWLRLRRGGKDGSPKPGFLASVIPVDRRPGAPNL
As to the kind of experiment: phage overlay on human prostate cancer tissue sections, compared with anti-IL-11Rα antibody staining.

T1 sequence (P07823 19-654): as the sequence (P11021 19-654) above, with Y295F, A631S counted along it

B1: WIFPWIQL (SEQ ID NO:6)-phage (peptide)
peptide: WIFPWIQL
notes: whole phage particles stood in the assay; also called GRP78-targeting phage clone; not shown: pIII coat protein of fd-based phage (fUSE5 vector)
Turning to B1, in experiment [1], the “fold binding over negative control phage (fd-tet)” value was found to be 870 fold. In addition, in experiment [2], the “fold binding over control phage (fd-tet)” value was 30 fold.

B2: WDLAWMFRLPVG (SEQ ID NO:7)-phage (peptide)
peptide: WDLAWMFRLPVG
notes: as for B1
As for B2, the “fold binding over negative control phage (fd-tet)” value in experiment [1] is 260 fold. The “fold binding over control phage (fd-tet)” value in experiment [2] amounted to 30 fold.

B3: CGRRAGGSC (SEQ ID NO:1)-displaying phage (peptide, not shown: large carriers)
peptide: CGRRAGGSC
notes: whole phage particles stood in the assay; also called IL-11-mimic phage; IL-11 mimic phage
Regarding B3, the binding result in experiment [3] is “binds”.
